Eleven molecules from patent US20210155689A1 (SHANGHAI PHARMAEXPLORER, published 2021) can be followed below.

Assay [1] concerns the target T1, human LAG-3 protein with hFc tag (hLAG-3-hFc protein) (human, UniProt P18627 23-450).
T1 construct: also called immunogen 1; LAG-3 extracellular domain protein; not shown: human IgG Fc fragment (hFc) of the pCpC vector
T1 sequence: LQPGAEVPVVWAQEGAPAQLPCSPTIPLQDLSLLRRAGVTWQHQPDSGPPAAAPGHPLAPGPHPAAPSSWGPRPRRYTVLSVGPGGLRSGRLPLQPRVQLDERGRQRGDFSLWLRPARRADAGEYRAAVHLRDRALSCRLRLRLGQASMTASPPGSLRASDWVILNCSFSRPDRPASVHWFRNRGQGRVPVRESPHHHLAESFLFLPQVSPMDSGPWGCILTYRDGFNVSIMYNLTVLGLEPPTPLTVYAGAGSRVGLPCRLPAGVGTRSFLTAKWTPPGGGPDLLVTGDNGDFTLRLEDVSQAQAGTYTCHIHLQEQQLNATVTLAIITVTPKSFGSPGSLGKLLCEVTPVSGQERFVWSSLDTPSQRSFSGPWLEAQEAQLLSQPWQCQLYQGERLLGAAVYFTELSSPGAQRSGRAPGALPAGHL
Nature of the assay: FACS, blocks LAG-3-hFc binding to MHC II on Raji; 66.667 nM. As for the experimental part:
The FACS reaction plate incubating the Raji cells was centrifuged to discard the supernatant. The above mixture was added as 100 μl per well to Raji cells and incubated on ice for 1-2 hours. The plate was washed twice with blocking solution (PBS, 2% fetal bovine serum) by centrifugation, added with 100 microliters of fluorescent (Alexa 488)-labeled secondary antibodies per well, and incubated on ice for 1.0 hours. The plate was washed 2-3 times by centrifugation with blocking solution (PBS, 2% fetal bovine serum), added with 100 microliters of PBS per well to suspend cells, and detected using FACS (FACS Calibur, BD) and the results were analyzed. Wherein, the IgG control was murine IgG, and the data in the table is the inhibition rate (%).

In assay [2] the target is T2, mouse LAG-3 protein with hFc tag (mLAG-3-hFc protein) (mouse; human, UniProt Q61790 24-442).
T2 construct: Made in HEK293 cells; also called mouse LAG-3 extracellular domain protein; not shown: human IgG Fc fragment (hFc) of the pCpC vector
T2 sequence: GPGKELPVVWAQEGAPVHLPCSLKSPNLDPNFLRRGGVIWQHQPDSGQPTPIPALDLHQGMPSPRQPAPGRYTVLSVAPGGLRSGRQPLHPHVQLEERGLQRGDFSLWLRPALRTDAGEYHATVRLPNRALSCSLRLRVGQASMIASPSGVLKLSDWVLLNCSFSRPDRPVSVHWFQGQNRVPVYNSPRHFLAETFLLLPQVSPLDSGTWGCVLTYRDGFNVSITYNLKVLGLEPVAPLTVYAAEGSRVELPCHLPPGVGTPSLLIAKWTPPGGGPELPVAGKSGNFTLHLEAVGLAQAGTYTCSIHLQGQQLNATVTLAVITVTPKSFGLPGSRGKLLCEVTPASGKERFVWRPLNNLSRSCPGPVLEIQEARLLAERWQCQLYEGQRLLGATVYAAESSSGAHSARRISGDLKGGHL
Nature of the assay: ELISA, mLAG-3-hFc coated; 0.6667 nM. As for the experimental part:
The plate was sealed with plastic film and incubated overnight at 4° C. The plate was washed 2 times with the plate washing solution (PBS+0.01% Tween20) on the next day, and added with the blocking solution (PBS+0.01% Tween20+1% BSA) and blocked at room temperature for 1-2 hours. The blocking solution was poured out, and the plate was added with 50-100 μl of the antibody sample to be tested to each well, incubated at 37° C. for 1-2 hours, and washed 2-3 times with a plate washing solution (PBS+0.01% Tween20). HRP (horseradish peroxidase) labeled secondary antibody was added, and the plate was incubated at 37° C. for 1-2 hours, and washed 2-3 times with a plate washing solution (PBS+0.01% Tween20). 100 μl of TMB substrate was added to each well. After incubated at room temperature for 15-30 minutes, the plate was added with 100 μl of stop solution (1.0N HCl) to each well.

The target of assay [3] is T3, monkey LAG-3 on cells (HEK293-cLAG-3 stable cell line) (monkey, UniProt P18627 24-525 (human entry)).
T3 construct: Full-length monkey (Chinese monkey) LAG-3 gene expressed on HEK293 cells
T3 chain: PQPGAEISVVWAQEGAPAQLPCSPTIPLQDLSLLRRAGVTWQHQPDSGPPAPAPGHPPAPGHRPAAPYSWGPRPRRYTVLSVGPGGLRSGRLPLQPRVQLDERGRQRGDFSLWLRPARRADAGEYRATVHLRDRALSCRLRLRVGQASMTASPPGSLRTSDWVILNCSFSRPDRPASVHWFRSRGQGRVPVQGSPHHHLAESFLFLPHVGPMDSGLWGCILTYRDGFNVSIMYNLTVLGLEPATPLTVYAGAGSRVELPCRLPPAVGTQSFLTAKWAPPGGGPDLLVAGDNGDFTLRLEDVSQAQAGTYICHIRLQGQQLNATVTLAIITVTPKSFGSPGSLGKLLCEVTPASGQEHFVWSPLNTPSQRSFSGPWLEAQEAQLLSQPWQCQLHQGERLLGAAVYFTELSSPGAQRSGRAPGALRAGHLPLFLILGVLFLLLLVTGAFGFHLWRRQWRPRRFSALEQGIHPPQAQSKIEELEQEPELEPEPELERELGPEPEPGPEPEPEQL
Nature of the assay: FACS, HEK293-cLAG-3, antibody 0.064 nM. The source says: The pIRES plasmid with the monkey-derived full-length gene was transfected into the HEK293 cell line to construct a HEK293 stable cell line containing monkey LAG-3 (herein referred to as HEK293-cLAG-3 stable cell line). The HEK293-hLAG-3 stable cell line and HEK293-cLAG-3 stable cell line were expanded in a T-75 cell culture flask to a 90% confluence. The medium was aspirated, and the cells were washed with HBSS (Hanks' Balanced Salt Solution) 1-2 times, then treated with a enzyme-free cell dissociation fluid (Versene solution: Life technology) and the cells were collected. The cells were washed with HBSS buffer for 1-2 times. After counted, the cells were diluted with HBSS to 1-2×10⁶ cells per ml, added with 1% goat serum blocking solution, incubated on ice for 20-30 minutes, and then washed with HBSS for 2 times by centrifugation. The collected cells were suspended in the FACS buffer (HBSS+1% BSA) to 2×10⁶ cells/ml, added as 100 microliters per well to a 96-well FACS reaction plate, added with 100 microliters per well of the antibody sample to be tested, incubated on ice for 1-2 hours. The plate was washed twice with the FACS buffer by centrifugation, added with 100 microliters of fluorescent (Alexa 488)-labeled secondary antibodies per well, and incubated on ice for 0.5-1.0 hours. The plate was washed 2-3 times with FACS buffer by centrifugation, added with 100 μl fixative solution (4% Paraformaldehyde) per well to suspend the cells. 5-10 minutes later, it was washed 1-2 times with FACS buffer by centrifugation. The cells were suspended with 100 microliters of FACS buffer, FACS (FACSCalibur, BD) was used for detection and the results were analyzed.

B1: 405B8H3 (mouse antibody purified from hybridoma) (antibody, V domains shown)
VH: QVQLQQSGAELVRPGASVTLSCKASGYTFTDYEMHWVKQTPVHGLEWIGATDPETGNSAYNQKFKGKAIMTADKSSSTAYMELRSLTSEDSAVYYCISTGWNDWGQGTSLTVSS
VL: DIKMTQSPSSMYASLGERVTITCKASQDINSYLSWFQQKPGKSPKTLIYRADRLLDGVPSRFSGSGSGQDYSLTISSLEYGDMGIYYCLQYDEFPYTFGGGTKLEIK
notes: also called mAb103-405B8H3; 405B81-13
B1: the “Inhibition rate (%)” value in assay [1] amounted to 94%.

B2: 105F1E10 (LAG-3 mouse-human chimeric antibody) (antibody, V domains shown)
VH: EVQLQQSGPELVKPGASVKMSCRASGYTFTDFKMHWMKQSHGKSLEWIGYIAPNNGGTAYNQKFRGKATLTVNESSNTAYMELRSLTSEDSAVYYCVDWDDVDYWGQGTTLTVSS
VL: DIKMTQSPSSMYASLGERVTITCKASQDINSYLSWFQQKSGKSPKTLIYRANRLVDGVPSRFSGSGSGQDYSLTISSLEYEDMGIYYCLQYVEFPLTFGAGTKLELK
Take B2: the OD450 in assay [2] was determined as 0.09 OD450.

B3: 405B8H3 (LAG-3 mouse-human chimeric antibody) (antibody, V domains shown)
VH: QVQLQQSGAELVRPGASVTLSCKASGYTFTDYEMHWVKQTPVHGLEWIGATDPETGNSAYNQKFKGKAIMTADKSSSTAYMELRSLTSEDSAVYYCISTGWNDWGQGTSLTVSS
VL: DIKMTQSPSSMYASLGERVTITCKASQDINSYLSWFQQKPGKSPKTLIYRADRLLDGVPSRFSGSGSGQDYSLTISSLEYGDMGIYYCLQYDEFPYTFGGGTKLEIK
notes: also called mouse-human chimeric antibody 405B8H3
In assay [2], B3 came in with an OD450 of 0.11 OD450.

B4: 105F1E10 (mouse antibody purified from hybridoma) (antibody, V domains shown)
VH: EVQLQQSGPELVKPGASVKMSCRASGYTFTDFKMHWMKQSHGKSLEWIGYIAPNNGGTAYNQKFRGKATLTVNESSNTAYMELRSLTSEDSAVYYCVDWDDVDYWGQGTTLTVSS
VL: DIKMTQSPSSMYASLGERVTITCKASQDINSYLSWFQQKSGKSPKTLIYRANRLVDGVPSRFSGSGSGQDYSLTISSLEYEDMGIYYCLQYVEFPLTFGAGTKLELK
notes: also called mAb009-105F1E10
Regarding B4, the “Inhibition rate (%)” value in assay [1] was 93.6%.

B5: 409B11E12 (mouse antibody purified from hybridoma) (antibody, V domains shown)
VH: QVQLQQSGAELVRPGASVTLSCKASGYTFTDYEMHWVKQTTVHGLEWIGATDPETSYSAYNQKFKGKAILTADKSSSTAYMELRSLTSEDSAVYYCIATGWNDWGQGTSLTVSS
VL: DLKMTQSPSSMYASLGERVTITCKASQDINSYLSWFQQKPGKSPKTLIYRANRLLDGVPSRFSGSGSGQDYSLTISSLEYEDMGIYYCLQYDEFPYTFGGGTKLEIK
notes: also called mAb104-409B11E12
As to B5, the “Inhibition rate (%)” value in assay [1] was 95.5%.

B6: 409D4E10 (LAG-3 mouse-human chimeric antibody) (antibody, V domains shown)
VH: QVQLQQSGAELVRPGASVTLSCKASGNTFTDYEMHWVKQTPVHGLEWIGATDPETDNTAYNQKFKGKAILTTDKSSSTAYMELRSLTSEDSAVYYCITSGWNDWGQGTSLTVSS
VL: DIKMTQSPSSMYASLGERVTITCKASQDINSYLSWFQQKPGKSPKTLIYRANRLLDGVPSRFSGSGSGQDYSLTISSLEYEDMGIYYCLQYNEFPYTFGGGTKLEIK
Molecule B6 had an OD450 in assay [2] of 0.11 OD450.

B7: 409D4E10 (mouse antibody purified from hybridoma) (antibody, V domains shown)
VH: QVQLQQSGAELVRPGASVTLSCKASGNTFTDYEMHWVKQTPVHGLEWIGATDPETDNTAYNQKFKGKAILTTDKSSSTAYMELRSLTSEDSAVYYCITSGWNDWGQGTSLTVSS
VL: DIKMTQSPSSMYASLGERVTITCKASQDINSYLSWFQQKPGKSPKTLIYRANRLLDGVPSRFSGSGSGQDYSLTISSLEYEDMGIYYCLQYNEFPYTFGGGTKLEIK
notes: also called mAb112-409D4E10
B7: the “Inhibition rate (%)” value in assay [1] came to 96%.

B8: 409B11E12 (LAG-3 mouse-human chimeric antibody) (antibody, V domains shown)
VH: QVQLQQSGAELVRPGASVTLSCKASGYTFTDYEMHWVKQTTVHGLEWIGATDPETSYSAYNQKFKGKAILTADKSSSTAYMELRSLTSEDSAVYYCIATGWNDWGQGTSLTVSS
VL: DLKMTQSPSSMYASLGERVTITCKASQDINSYLSWFQQKPGKSPKTLIYRANRLLDGVPSRFSGSGSGQDYSLTISSLEYEDMGIYYCLQYDEFPYTFGGGTKLEIK
In assay [2], B8 yielded an OD450 of 0.1 OD450.

B9: 556F6B8 mouse-human chimeric antibody (antibody, V domains shown)
VH: RVQLKQSGPGLVQPSQSLSITCTVSGFSLIKYGVHWVRQSPGEGLEWLGVIWRGGITDYNAAFMSRLSITKDNSKSQVFFKMNSLQADDTAIYYCAKWDGPLAMDYWGQGTSVTVSS
VL: DIVMTQSHKFLSTSVGDRVSITCKASQDVGTTVAWYQQKPGQSPKLLIYWASTRHTGVPDRFTGSGSGTDFTLTISNVQSEDLADYFCQQYSSYPYTFGGGTKLEIK
notes: also called mAb123-556F6B8; 556F8B8
Regarding B9, the Mean fluorescence intensity in assay [3] turned out to be 4.45.

B10: 556F6B8 (mouse antibody purified from hybridoma) (antibody, V domains shown)
VH: RVQLKQSGPGLVQPSQSLSITCTVSGFSLIKYGVHWVRQSPGEGLEWLGVIWRGGITDYNAAFMSRLSITKDNSKSQVFFKMNSLQADDTAIYYCAKWDGPLAMDYWGQGTSVTVSS
VL: DIVMTQSHKFLSTSVGDRVSITCKASQDVGTTVAWYQQKPGQSPKLLIYWASTRHTGVPDRFTGSGSGTDFTLTISNVQSEDLADYFCQQYSSYPYTFGGGTKLEIK
notes: also called mAb123-556F6B8
Consider B10, for which the “Inhibition rate (%)” value in assay [1] is 95.9%.

B11: 556F6B8 (LAG-3 mouse-human chimeric antibody) (antibody, V domains shown)
VH: RVQLKQSGPGLVQPSQSLSITCTVSGFSLIKYGVHWVRQSPGEGLEWLGVIWRGGITDYNAAFMSRLSITKDNSKSQVFFKMNSLQADDTAIYYCAKWDGPLAMDYWGQGTSVTVSS
VL: DIVMTQSHKFLSTSVGDRVSITCKASQDVGTTVAWYQQKPGQSPKLLIYWASTRHTGVPDRFTGSGSGTDFTLTISNVQSEDLADYFCQQYSSYPYTFGGGTKLEIK
notes: also called 556F8B8
In turn, B11 returned an OD450 in assay [2] of 0.15 OD450.
